Results on two molecules are retold here after patent publication US20190225698A1 (JIANGSU HENGRUI MEDICINE, published 2019).

The target in the experiment is T1, human CD27-HisFc fusion protein (human, UniProt P26842 20-192).
T1 construct: also called CD27-HisFc (Sino Biological #10039-H03H); not shown: His tag and Fc
T1 sequence (looked up): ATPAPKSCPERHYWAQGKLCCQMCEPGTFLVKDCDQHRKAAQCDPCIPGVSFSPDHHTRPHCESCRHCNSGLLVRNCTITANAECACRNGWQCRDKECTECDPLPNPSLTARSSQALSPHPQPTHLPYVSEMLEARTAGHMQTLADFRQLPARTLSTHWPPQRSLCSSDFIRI
Put plainly: BLI (Octet RED96), CD27-HisFc captured on AHC sensor, Fab in solution. On the procedure:
A histidine tag was added to each unique sequence of the antibody Fab fragment at the C-terminal, and the antibody Fab fragment was overexpressed in an E. coli expression system, and then purified by using Ni-NTA affinity resin. […] The collected data was processed by Data Acquisition 7.1 software and fitted to a 1:1 combined Langmuir model curve. The mAb076 and mAb077 antibodies were the two antibodies with optimal binding and were selected for further analysis and development experiments.
A general note: Biolayer interferometry detects binding as a change in optical thickness at a sensor tip.

B1: mAb076 antibody Fab fragment with C-terminal histidine tag (Fab, V domains shown)
VH: EVQLVESGGGLVQPGGSLRLSCAASGFTFSDYGIHWVRQAPGKGLEWIGWINPNRGSTNYAQKFQGRVTISRDNSKNTLYLQLNSLRAEDTAVYYCARDYGYTWYFDVWGQGTLVTVSS
VL: DIQLTQSPSSLSASVGDRVTITCRASQDISSVLAWYQQKPGKAPKLLIYAASSLQSGVPSRFSGSGSGTDFTLTISSLQPEDFATYYCQQRDAWPLTFGQGTKVEIK
Take B1: the binding result is “binds”.

B2: mAb077 antibody Fab fragment with C-terminal histidine tag (Fab, V domains shown)
VH: EVQLVESGGGLVQPGGSLRLSCAASGFTFSGYGIHWVRQAPGKGLEWIGWINPNRGSTKYAQKFQGRVTISRDNSKNTLYLQLNSLRAEDTAVYYCARDPGYTWYFDVWGQGTLVTVSS
VL: DIQLTQSPSSLSASVGDRVTITCRASQDISSDLAWYQQKPGKAPKLLIYAASTLQSGVPSRFSGSGSGTDFTLTISSLQPEDFATYYCQQRDAWPPTFGQGTKVEIK
Regarding B2, the binding result is “binds”.
